This series can be described thus: label from the status in PepcDB records.
Consider “MSNSIFHKIIKSVKGLKLKTDPNLPGAKQKTPLNIKRFYLLIILVIYTATSACIYFDWSAIRKLLLHVGKYKHLNVDEYSDMTLSPQYKRINGLYPLTLAVHFTTSVFCGFLYDHIGPKFTAIIGQLFNIICWILLSIDIKGVDTTLWGFIFLGLGADTAFIPVLTVSNLYPDASTFILTVIGAAASLSYAVPATLNLVLKYFPNLSFSYVCYGYIILILIPCLLTAAFLLPLKPFKALDYYLEKNNETTKHTNAEGRSRSSNNIYTNEEDEFHFKNNASGMVDKDSTENNMNTDEHNYYNNGNISSNDLENNIQTNNRNNNKNNNYNNNNNNNNIIKKNTKISDQSTVKKDKSIDSNKNILHDEEDFHKKSIFLFFKILISYPSVCVITYFILFNISTVFYGMVTDTYFSYDRSIINVINILMPLSSIPCVVFGRFINKYGASVIILTINTLSVLMHLCALIKFRFAGLCSAFLYMCVTSVYTSQIYCFIQNSFPSIVFGKLLGFASLCGGIFSLLCEKLYDLIIIKDSSSIDPTNISLLIVIAFIIMFLPLSILYVRKYERSIENFGEKDKLPMN”, for which the protein production entry is “failed”.

“MSNSINLGRVAVIDIGKTNAKVVVIDTGSGEEIAAEKRTNPVLRDGPYPHYDVEMLWNFILAALQRFGHEPGFDAISITTHGASAALLDGTGDLAMPVLDYEHIYAEPVQQAYRGIRPDFAETGSPQLPAGLNLGAQIHFQKTNFPDDFARVRSIVTYPQYWAGRLTGVQATETTSLGCHTDLWNPRRKSFSSLVGRLGIEHLMAPVRSAFDVLGTIRPSLAQETGLSPDMPVYCGIHDSNASLLPHLLRREGDFSVVSTGTWVVNFAIGGKADALDPARDTLLNVDALGRPVPSSRFMGGREYEMLAQQFGAATPHDIEAALGGVIEKGMMLLPSVVSGSGPFPQSASRWIADSDATGAERHAAASLYLALMTEFCLSLVERRGPIVVEGPFAGNALYLKALAAFAATDVIAMEGSTGTSAGAALLTGIKPVAGRERHFTAEDIAGLTSYRTAWQNHLT”: the protein production entry is reported as “failed”.

Consider “MSNSQAGPGASVRRVLAVIPARGGSKGVPAKNLAPVGGVPLVVRAVRECLAARLVTDVVVSTDDQAIAAAAREAGAEVVLRPAAIAGDTATSEAAVLHAMDAHEALHGAAVDVVLLVQCTSPFLVREDVDGVAGAVVEDGADTAVTVAPFHGFVWRDGADEPGGADGGHGVNHDKAYRPRRQDRPQDLLETGAAYAMAAPGFRKHRHRFFGRTDLVRTDPARVLEIDDPHDLARARALAPHFDTARPGALPTAADIDAVVLDFDGTQTDDRVLIDTDGREFVSVHRGDGLGIAALRRSGLTMLILSTEVNPVVAARARKLKLPVLHGIDRKDLALKQWCEEQGIAPERVLYVGNDVNDLPCFALVGWPVAVASAHDAVRGAARAVTTVPGGEGAVREIAAWLLGPSLDALGPASETTPTLTQSKLEHHHHHH”, for which the protein production entry is “not failed”.

In the case of “MSNVAQYKDGTYIGKAQGKAAEVEVTVSIKEGKIANAEVLKHGDTEAMMLSATDQIVPELIEKQDINKVDAVTGATLSSQGVINAVKQALEQAKVTPLEHHHHHH”, the protein production result is “not failed”.

Regarding “MSNVCIVYSSTHHGNTEKVLNKIKEKFPETVLIKAGDFNPDDFNRYEAIGFASGIFYFKFAKPVDKLFEQALVGSVQKLFFIYTAGAVNAGFEKTLRKKTEQSGKICMGIFGCKGFDTFGPLKLIGGLNKNSPNEKDFKNAIDFFEKNIINALEHHHHHH”, the protein production result is given as “not failed”.

As to “MSNYPLHQACMENEFFKVQELLHSKPSLLLQKDQDGRIPLHWSVSFQAHEITSFLLSKMENVNLDDYPDDSGWTPFHIACSVGNLEVVKSLYDRPLKPDLNKITNQGVTCLHLAVGKKWFEVSQFLIENGASVRIKDKFNQIPLHRAASVGSLKLIELLCGLGKSAVNWQDKQGWTPLFHALAEGHGDAAVLLVEKYGAEYDLVDNKGAKAEDVALNEQVKKFFLNNV”, the protein production entry was “not failed”.

“MSNYTESLQYLDSYISARVPVIGMRTIEQQRALRLLREAATQPRRSSMPFWIYTRATGLRDLRTNAPVQDDRSLTGAMDFAAAQFTSRANATVVFVDPDDLGGDTPITRHIAELARLADSNMGSIVLITDTPIWSGLQRLGMSLHLDLPDADEMYGILSGFLGDHHGHIPIEWDEADGRRAAEFLLGVTEAECINLMATIAAKGSIQKADVLGLAQAKDRIFSDLTGLERVQLKEADYTVGGLSSLREWLQRKHWQLHEDLRDSALRPPRGVLLVGVPGCGKSLSAKAIAHEWQLPLYRLDMGAIHGKYLGESEGRFREALAMADRVAPCVLWIDEIEKGLAGRDDGSGVPQRIIGQFLFWLQESQSRAFVVATANDIRSLPPELLRKGRFDELFFVDLPDAQDRKEIIELYYQRYLQGEPDRDQVDQLVDLSEGFAGSDIESALHDVGLEARRIGGADGLKASFLRDTFANTVPMSRVNPEQIEEIRAWGRERALPAGRSTVSAAPGGAKPSRRIVFMDD”: the protein production entry is recorded as “failed”.

Regarding “MSPASGSVISCAKVLDDYFYGSSNTVEALLLNSFETPALLFTTETSNLLTDIREDRSRHIEKISPYLLLTAGILSGFNPCLLAVMAFLASVNLTQKGRRKEMLKITLGFSTGIFTMHMLAGLSILGTVNFLPELRSYFSEIAVVMTALLGFWHIYDAYWLRKHAKTTFRTPQPLKDFMSRMDEKNLLLLSFLAGGMFSLVKAPCVGAVYLSLLSLLAMKTDIVRGIEYIWIFNLGLLLPVVLLGLLLAFGLSPKTVTEFRERKRVGIRLITGSILISLALMMQFRIL”, the protein production entry was “failed”.

For the sequence “MSPISEPSRLDPVRPGQLLMIDLPGPELDKDTAAYLREHGIGAVCLFGKNVESAEQLRRLCADLREVMGEHALIAIDHEGGAITRPEFWPFAPSAMSLGAADDQQLTEDVNAALARQLRSVGINWNFTPVLDINVNPANPVIGDRAYGSDAARVTRHGRAALAGHTREGVAPCAKHFPGHGDTHQDSHLALPRVSKSRAELDAGELAPFRALLPETPAIMTAHIVYDALDAEHPATLSPRILTGLLREEWGYDGVIVTDSMGMQAIDANYGRGEAAVRALRAGADLVMALGRREVQQATLAAVAEYVPENQAAVATKRERLRALARRFPAQADETLDPQADAALLADA”, the protein production entry is listed as “not failed”.

With “MSPIVSVPDITAPVENVPAILPKVVPGELIVNKPTGGDSDELFQYLVDILASPVYDVAIESPLELAEKLSDRLGVNFYIKREDKQRVFSFKLRGAYNMMSNLSREELDKGVITASAGNHAQGVALAGQRLNCVAKIVMPTTTPQIKIDAVRALGGDVVLYGKTFDEAQTHALELSEKDGLKYIPPFDDPGVIKGQGTIGTEINRQLKDIHAVFIPVGGGGLIAGVATFFKQIAPNTKIIGVEPYGAASMTLSLHEGHRVKLSNVDTFADGVAVALVGEYTFAKCQELIDGMVLVANDGISAAIKDVYDEGRNILETSGAVAIAGAAAYCEFYKIKNENIVAIASGANMDFSKLHKVTELAGLGSGKEALLATFMVEQQGSFKTFVGLVGSLNFTELTYRFTSERKNALILYRVNVDKESDLEKMIEDMKSSNMTTLNLSHNELVVDHLKHLVGGSANISDEIFGEFIVPEKAETLKTFLDAFSPRNITLCRYRNQGDINASLLMGFQVPQAEMDEFKNQADKLGYPYELDNYNEAFNLVVSE”, the protein production entry is on record as “not failed”.

Consider “MSPLASRALSFLGALSLLTFAATPVLAESTPTAAPPQFAVESPKAASSLLLSVAHAGKRLVAVGDRGHILLSDDDGKTWTQAKVPTRQLLTSVFFVNERKGWAVGHDAQILVSDDAGSTWARQFEDLGREAPLLDIWFADEQHGLAVGAYGALLETRDGGQHWEDVSERLDNEDQFHLNAIAAVKDNGLLVVGEAGSLFRSKDWGATWEKLEGPYEGSLFGAIGTADAGGVLVYGLRGHLFRSADFGDSWEEIPLKAASGDLEFGLSDGALLADGRIVVVGHGGSVLESTDGGRSFSVFNRPDRLSLAGVSATGDGHLILVGQGGVHLAAANGAALEQQQLEHHHHHH”, for which the protein production entry is given as “failed”.

“MSPLHRFSRTEILIGPEKLQRLRESTVAIFGLGGVGSFAAEALCRAGVGRLVLVDFDDICLTNVNRQLHAMDGTVGKAKVQVMAERLRLINPDADIVPHKDFYEAGNSDFLLSGGYNYVVDAIDHITSKLHLIRSCRERELRIISSMGAANKLDPTKIRVADISKTSVCGLARVVRKQLRRQGIKSGVTVVYSTEEPREQAIADAGCRSNCICPNKEEQRFSCEHRRNILGSISFIPSIFGLTMAGVVVNDLAKD”: the protein production result is reported as “failed”.
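Also: failed if final PepcDB status was selected cloned or expressed and not failed if soluble or beyond.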
